The assay has as its target hPD-L1 (Fortebio Octet assay of Example 3) (human, UniProt Q9NZQ7 19-238, limits assumed). The experiment in a line: BLI, Fortebio Octet; format not stated.

Sequence of hPD-L1 (Fortebio Octet assay of Example 3) (Q9NZQ7 19-238 limits assumed): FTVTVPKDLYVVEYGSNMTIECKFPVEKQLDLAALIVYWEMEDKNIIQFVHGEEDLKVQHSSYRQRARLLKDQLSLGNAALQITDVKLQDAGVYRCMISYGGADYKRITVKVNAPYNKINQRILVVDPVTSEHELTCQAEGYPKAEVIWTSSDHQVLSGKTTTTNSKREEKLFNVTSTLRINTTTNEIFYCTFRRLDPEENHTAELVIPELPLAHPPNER

B1: humanized anti-hPD-L1 antibody variant 2 (antibody, V domains shown)
VH: QVQLVQSGAEVKKPGASVKVSCKASGFNIKDTYMYWVRQAPGQGLEWMGRIDPANDNTKYAQKFQGRVTITADTSTSTAYMELSSLRSEDTAVYYCARAKNLLNYFDYWGQGTLVTVSS
VL: DIQMTQSPSSLSASVGDRVTITCRASQEISGYLSWLQQKPGKAPKRLIYATSTLQSGVPSRFSGSRSGTDYTLTISSLQPEDFATYYCLQYAIYPLTFGQGTKLEIKR
notes: Human IgG1; also called Humanized VH 1 + Humanized VL2; anti-PD-L1 IgG1
The molecule B1 displayed a koff of 2.72e-05 s⁻¹.

These data come from US20210214444A1 (TAYU HUAXIA BIOTECH MEDICAL GROUP, published 2021).
